These results are taken from US20090240036A1 (Eli Lilly, published 2009).

Experiment [1] concerns the target Human IL-23 (heterodimer of p19 and p40 subunits) (human) (UniProt P29460). The experiment in a line: cell-based or functional assay.
Experiment [2] shares this target. Kind of experiment: BIAcore SPR, antibody captured on protein A, human IL-23 flowed, HBS-EP pH 7.4, 25 C. For orientation: Surface plasmon resonance follows binding to a sensor surface in real time, without labels.
Experiment [3] deals with T1, Human IL-23 (heterodimer of p19 and p40 subunits) (human, UniProt P29460 23-328).
T1 sequence 1: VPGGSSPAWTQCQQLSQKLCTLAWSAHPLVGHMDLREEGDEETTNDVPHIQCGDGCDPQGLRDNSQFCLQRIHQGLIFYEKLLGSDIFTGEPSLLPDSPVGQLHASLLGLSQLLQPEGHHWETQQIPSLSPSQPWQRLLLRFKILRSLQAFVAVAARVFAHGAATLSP
T1 sequence 2: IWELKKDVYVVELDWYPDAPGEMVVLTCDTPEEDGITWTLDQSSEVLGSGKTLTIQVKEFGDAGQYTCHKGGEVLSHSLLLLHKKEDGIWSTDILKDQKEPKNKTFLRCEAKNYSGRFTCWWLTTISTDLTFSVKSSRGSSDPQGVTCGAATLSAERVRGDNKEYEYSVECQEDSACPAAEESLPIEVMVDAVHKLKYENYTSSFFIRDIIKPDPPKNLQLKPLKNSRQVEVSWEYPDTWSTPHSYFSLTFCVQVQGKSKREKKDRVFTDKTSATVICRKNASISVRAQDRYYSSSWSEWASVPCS
Kind of experiment: cell-based or functional assay.

Experiment [4] addresses T1, Human IL-23 (heterodimer of p19 and p40 …). The experiment in a line: BIAcore SPR, antibody captured on protein A, human IL-23 flowed, HBS-EP pH 7.4, 25 C. The procedure:
Affinities of MAb3A8 and antibodies of the present invention are determined using BIAcore measurements (Table 3). BIAcore™ is an automated biosensor system that measures molecular interactions. (Karlsson, et al. (1991) J. Immunol. Methods 145: 229-240). In these experiments antibody is captured to a surface at low density on a BIAcore™ chip. Ethyl-dimethylaminopropyl-carbodiimide (EDC) is used to couple reactive amino groups to protein A to a flow cell of a carboxy-methyl (CM5) BIAcore™ sensor chip. Protein A is diluted in sodium acetate buffer, pH 4.5, and immobilized on a flow cell of a CM5 chip using EDC to yield 1000 response units. Unreacted sites are blocked with ethanolamine. A flow rate of 60 μl/min is used. Multiple binding/elution cycles are performed by injection a 10 μl solution of 2 μg/mL of the antibodies of the present invention. followed by human IL-23 at decreasing concentrations for each cycle (e.g. 1500, 750, 375, 188, 94, 47, 23.5, 12, and 0 picomolar). Elution is performed with glycine-HCl, pH 1.5. BIAevaluation™ is used to analyze the kinetic data.

“MAB1290, anti-human IL-23 monoclonal antibody, murine (R&D Systems)” came in with an IC50 Measured in the Murine Splenocyte Assay in experiment [1] of 2800 pM. In addition, in experiment [2], the Kd (commonly a measure of binding affinity in units of concentration) came to 21400 pM; the koff (in general, the rate constant with which the complex falls apart) turned out to be 0.000768 s⁻¹; the kon (in general, the second-order rate constant of association) worked out at 36800 M⁻¹ s⁻¹.

B1: MAbQF20 (antibody, human IgG1, kappa, V domains shown)
VH: QVQLVQSGAEVKKPGASVKVSCKVSGKTFWSYGINWVRQAPGKGLEWMGYIYIGTGYTEPNPKYKGRVTMTEDTSTDTAYMELSSLRSEDTAVYYCATIGGYYGNFADWGQGTTVTVSS
VL: DVVMTQSPLSLPVTLGQPASISCRSSQSLLISGGKTYLNWFQQRPGQSPRRLIYLVSKLDQGVPDRFSGSGSGTDFTLKISRVEAEDVGVYYCWQGTYFPLTFGQGTKLEIKR
notes: Humanized antibody derived from MAb3A8
Regarding B1, in experiment [3], the “IC50 Measured in the Murine Splenocyte Assay” value stood at 2 pM. In experiment [4], this molecule gave a Kd of 74 pM, a koff of 0.000115 s⁻¹ and a kon of 1.55e+06 M⁻¹ s⁻¹.

B2: MAbQF37 (antibody, human IgG1, kappa, V domains shown)
VH: QVQLVQSGAEVKKPGASVKVSCKVSGKTFWSYGINWVRQAPGKGLEWMGYIYIGTGYTEPNPKYKGRVTMTEDTSTDTAYMELSSLRSEDTAVYYCATIGGYYGNFDQWGQGTTVTVSS
VL: DVVMTQSPLSLPVTLGQPASISCRSSQSLLISGGKTYLNWFQQRPGQSPRRLIYLVSKLDQGVPDRFSGSGSGTDFTLKISRVEAEDVGVYYCWQGTYFPLTFGQGTKLEIKR
notes: as for B1
With B2, the “IC50 Measured in the Murine Splenocyte Assay” value in experiment [3] was found to be 2 pM. In experiment [4], this molecule had a Kd of 98 pM, a koff of 0.000153 s⁻¹ and a kon of 1.55e+06 M⁻¹ s⁻¹.
